Data: publication PMC5663958, “DNA Ligase C and Prim-PolC participate in base excision repair in mycobacteria” (Nature Communications, 2017)

Key:
[1] = target: T1, tag-free LigC1 (6xHis-LigC subjected to thrombin digestion) (M. smegmatis, UniProt A0R5T2 1-348); test: pull-down; FPG-6xHis or 6xHis-MPG bound to Ni-NTA resin in 50 mM Tris pH 8.0, 150 mM NaCl, 1 h at 4 °C; tag-free LigC or BSA added for 2 h; equimolar proteins; eluted with imidazole; SDS-PAGE and Coomassie staining; conditions: both partners purified
T1 construct: ATP-dependent DNA ligase C1 of Mycobacterium smegmatis, locus msmeg_6302; same construct as m2 with the tag cut off by thrombin; The methods say 'LigC', the results 'LigC1'; source: E. coli Origami B pLysS, purified; His-tag removed by a standard thrombin digestion; not shown: 6xHis, N-terminal, cleaved
T1 sequence (looked up): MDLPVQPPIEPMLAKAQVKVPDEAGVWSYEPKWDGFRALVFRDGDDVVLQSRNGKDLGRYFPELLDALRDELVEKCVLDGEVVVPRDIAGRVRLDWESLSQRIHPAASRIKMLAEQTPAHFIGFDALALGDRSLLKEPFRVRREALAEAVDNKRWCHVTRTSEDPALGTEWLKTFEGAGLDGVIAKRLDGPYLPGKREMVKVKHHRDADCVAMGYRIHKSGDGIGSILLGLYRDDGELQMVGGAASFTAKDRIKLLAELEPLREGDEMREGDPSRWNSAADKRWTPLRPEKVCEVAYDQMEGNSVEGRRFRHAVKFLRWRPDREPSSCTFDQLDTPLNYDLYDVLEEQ

[2] = target: T2, DNA ligase C1 (LigC1, msmeg_6302), recombinant, His-tagged construct (M. smegmatis, UniProt A0R5T2 1-348); test: far-Western, overlay or dot blot; recombinant proteins slot-blotted on a membrane (3 μg of the possible interactors, 50 ng of the probed protein), blocked in TBS, 0.05% Tween 20, 5% milk; incubated with 5 μg ml^−1 Prim-PolC or LigC1; detected with Prim-PolC- or LigC1-specific antibodies; conditions: both partners purified
T2 construct: ATP-dependent DNA ligase C1 of Mycobacterium smegmatis, locus msmeg_6302; Cloned in pET28; also called 6xHis-LigC; source: E. coli Origami B pLysS, purified (Ni Sepharose, ion exchange, gel filtration)
T2 sequence (looked up): T1 sequence (looked up)

B1: FPG (MutM) bifunctional glycosylase, recombinant (enzyme, M. smegmatis, UniProt A0QV21 1-285, looked up)
chain: MPELPEVEVVRRGLAEHVTGKTITGVRVHHPRAVRRHEAGPADLTARLLDVRITGTGRRGKYLWLTLDDSAALVVHLGMSGQMLLGPIRDTRHLRIAAVLDDGTALSFVDQRTFGGWQLTEMVTVDGTDVPEPVAHIARDPLDPLFDRDRVVTVLRGKHSEIKRQLLDQTVVSGIGNIYADEALWRTKINGARIAAALPRRRLAELLDAAAEVMTDALGQGGTSFDSLYVNVNGESGYFDRSLDAYGREGEPCRRCGAIMRREKFMNRSSFYCPRCQPRPRVPRV
notes: Bifunctional DNA glycosylase FPG (MutM) of Mycobacterium smegmatis; Cloned in pET28; also called FPG-6xHis; source: E. coli Origami B pLysS, purified (Ni Sepharose, ion exchange, gel filtration); not shown: 6xHis, C-terminal, kept
B1: binds [1]; binds [2].
